Test results taken from patent US20070259336A1.

Legend:
[1] = molecular target: serum 12, head and neck cancer patient (Table 1) (human); experiment: 5 ug MBP competitor preincubated with serum 12, then IP of Ruc-p53
[2] = molecular target: serum 25, breast cancer patient (Table 1) (human); experiment: 5 ug MBP competitor preincubated with serum 25, then IP of Ruc-c-Myc
[3] = molecular target: serum 34, colon cancer patient (Table 1) (human); experiment: 5 ug MBP competitor preincubated with serum 34, then IP of Ruc-p53
[4] = molecular target: serum 24, breast cancer patient (Table 1) (human); experiment: 5 ug MBP competitor preincubated with serum 24, then IP of Ruc-β-catenin-Δ1
[5] = molecular target: serum 27, breast cancer patient (Table 1) (human); experiment: 5 ug MBP competitor preincubated with serum 27, then IP of Ruc-K-Ras
[6] = molecular target: serum 36, colon cancer patient (Table 1) (human); experiment: 5 ug MBP competitor preincubated with serum 36, then IP of Ruc-Smad4
[7] = molecular target: serum 32, colon cancer patient (Table 1) (human); experiment: 5 ug MBP competitor preincubated with serum 32, then IP of Ruc-K-Ras
[8] = molecular target: serum 22, breast cancer patient (Table 1) (human); experiment: 5 ug MBP competitor preincubated with serum 22, then IP of Ruc-Smad4
[9] = molecular target: serum 34, colon cancer patient (Table 1) (human); experiment: 5 ug MBP competitor preincubated with serum 34, then IP of Ruc-K-Ras
[10] = molecular target: serum 33, colon cancer patient (Table 1) (human); experiment: 5 ug MBP competitor preincubated with serum 33, then IP of Ruc-p53
[11] = molecular target: serum 35, colon cancer patient (Table 1) (human); experiment: 5 ug MBP competitor preincubated with serum 35, then IP of Ruc-K-Ras
[12] = molecular target: serum 15, head and neck cancer patient (Table 1) (human); experiment: 5 ug MBP competitor preincubated with serum 15, then IP of Ruc-p53

B1: MBP fusion containing the SPEC2 cDNA (protein, UniProt Q9NRR3 1-84, looked up, not shown: large carriers)
chain: MSEFWLCFNCCIAEQPQPKRRRRIDRSMIGEPTNFVHTAHVGSGDLFSGMNSVSSIQNQMQSKGGYGGGMPANVQMQLVDTKAG
B1 gave a percent competition [1] of 21%, a percent competition [2] of 0% and a percent competition [3] of 11%. The percent competition [4] was 23%, the percent competition [5] was 5% and the percent competition [6] was 0%. For the same binder, the percent competition [7] was 25%, the percent competition [8] was 4% and the percent competition [9] was 4%. The percent competition [10] was 7%, the percent competition [11] was 16% and the percent competition [12] was 20%.
